Where a chain is given by its changes, count along the chain named. In names and notes the source's numbering stands. One block for each binder: values may come before it.
Biological target: T1, Human CD3eg linker (human)
T1 construct: Single chain: epsilon and gamma subunits of human CD3 joined by a 29-mer linker, Flag-tag at the C-terminus; also called recombinant human CD3
T1 chain: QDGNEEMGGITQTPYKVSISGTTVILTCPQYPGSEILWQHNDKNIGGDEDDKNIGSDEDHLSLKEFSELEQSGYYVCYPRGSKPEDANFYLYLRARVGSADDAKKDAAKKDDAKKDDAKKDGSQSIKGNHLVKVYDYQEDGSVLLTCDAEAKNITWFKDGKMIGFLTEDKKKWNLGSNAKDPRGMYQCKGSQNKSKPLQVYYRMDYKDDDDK
Experiment: Biacore SPR, vs template H183/L072

- fold change of affinity: 1.3 fold
B1: H183/L072 VH A100P (antibody, name in Kabat numbering, V domains shown)
VH: QVQLVESGGGLVQPGRSLRLSCAASGFTFSNAWMHWVRQAPGKGLEWVAQIKDKGNAYAAYYAPSVKGRFTISRDDSKNSIYLQMNSLKTEDTAVYYCHYVHYASPSTVLPAFGVDAWGQGTTVTVSS
VL: DIVMTQSPLSLPVTPGEPASISCQASQELVHMNRNTYLHWYQQKPGQAPRLLIYKVSNRFPGVPDRFSGSGSGTDFTLKISRVEAEDVGVYYCAQGTSVPFTFGQGTKLEIK

- fold change of affinity: 0 fold
B2: H183/L072 VH F27Q (antibody, name in Kabat numbering, V domains shown)
VH: B1 VH with F27Q, P106A
VL: B1 VL

- fold change of affinity: 0 fold
B3: H183/L072 VH D52aV (antibody, name in Kabat numbering, V domains shown)
VH: B1 VH with D53V, P106A
VL: B1 VL

- fold change of affinity: 0 fold
B4: H183/L072 VH A102P (antibody, name in Kabat numbering, V domains shown)
VH: B1 VH with P106A, A117P
VL: B1 VL

- fold change of affinity: 0 fold
B5: H183/L072 VH F27E (antibody, name in Kabat numbering, V domains shown)
VH: B1 VH with F27E, P106A
VL: B1 VL

- fold change of affinity: 0 fold
B6: H183/L072 VH D52aI (antibody, name in Kabat numbering, V domains shown)
VH: B1 VH with D53I, P106A
VL: B1 VL

- fold change of affinity: 0 fold
B7: H183/L072 VH D52aF (antibody, name in Kabat numbering, V domains shown)
VH: B1 VH with D53F, P106A
VL: B1 VL

- fold change of affinity: 0.6 fold
B8: H183/L072 VH D101I (antibody, name in Kabat numbering, V domains shown)
VH: B1 VH with P106A, D116I
VL: B1 VL

- fold change of affinity: 1 fold
B9: H183/L072 VH A102M (antibody, name in Kabat numbering, V domains shown)
VH: B1 VH with P106A, A117M
VL: B1 VL

- fold change of affinity: 0 fold
B10: H183/L072 VH D52aA (antibody, name in Kabat numbering, V domains shown)
VH: B1 VH with D53A, P106A
VL: B1 VL

- fold change of affinity: 1.3 fold
B11: H183/L072 VH A100fM (antibody, name in Kabat numbering, V domains shown)
VH: B1 VH with P106A, A112M
VL: B1 VL

- fold change of affinity: 0.6 fold
B12: H183/L072 VH F27I (antibody, name in Kabat numbering, V domains shown)
VH: B1 VH with F27I, P106A
VL: B1 VL

- fold change of affinity: 0 fold
B13: H183/L072 VH D52aY (antibody, name in Kabat numbering, V domains shown)
VH: B1 VH with D53Y, P106A
VL: B1 VL

- fold change of affinity: 0.2 fold
B14: H183/L072 VH F27R (antibody, name in Kabat numbering, V domains shown)
VH: B1 VH with F27R, P106A
VL: B1 VL

- fold change of affinity: 0 fold
B15: H183/L072 VH D52aM (antibody, name in Kabat numbering, V domains shown)
VH: B1 VH with D53M, P106A
VL: B1 VL

- fold change of affinity: 0.7 fold
B16: H183/L072 VH D101M (antibody, name in Kabat numbering, V domains shown)
VH: B1 VH with P106A, D116M
VL: B1 VL

- fold change of affinity: 0.3 fold
B17: H183/L072 VH D52aH (antibody, name in Kabat numbering, V domains shown)
VH: B1 VH with D53H, P106A
VL: B1 VL

- fold change of affinity: 0.7 fold
B18: H183/L072 VH A102L (antibody, name in Kabat numbering, V domains shown)
VH: B1 VH with P106A, A117L
VL: B1 VL

- fold change of affinity: 0 fold
B19: H183/L072 VH D52aL (antibody, name in Kabat numbering, V domains shown)
VH: B1 VH with D53L, P106A
VL: B1 VL

- fold change of affinity: 0 fold
B20: H183/L072 VH D52aW (antibody, name in Kabat numbering, V domains shown)
VH: B1 VH with D53W, P106A
VL: B1 VL

- fold change of affinity: 0 fold
B21: H183/L072 VH D52aQ (antibody, name in Kabat numbering, V domains shown)
VH: B1 VH with D53Q, P106A
VL: B1 VL

- fold change of affinity: 0 fold
B22: H183/L072 VH F27D (antibody, name in Kabat numbering, V domains shown)
VH: B1 VH with F27D, P106A
VL: B1 VL

- fold change of affinity: 0.2 fold
B23: H183/L072 VH D52aG (antibody, name in Kabat numbering, V domains shown)
VH: B1 VH with D53G, P106A
VL: B1 VL

- fold change of affinity: 0.2 fold
B24: H183/L072 VH F27A (antibody, name in Kabat numbering, V domains shown)
VH: B1 VH with F27A, P106A
VL: B1 VL

- fold change of affinity: 1 fold
B25: H183/L072 VH A100fI (antibody, name in Kabat numbering, V domains shown)
VH: B1 VH with P106A, A112I
VL: B1 VL

- fold change of affinity: 0 fold
B26: H183/L072 VH D52aT (antibody, name in Kabat numbering, V domains shown)
VH: B1 VH with D53T, P106A
VL: B1 VL

- fold change of affinity: 0 fold
B27: H183/L072 VH D52aP (antibody, name in Kabat numbering, V domains shown)
VH: B1 VH with D53P, P106A
VL: B1 VL

- fold change of affinity: 0.5 fold
B28: H183/L072 VH F27G (antibody, name in Kabat numbering, V domains shown)
VH: B1 VH with F27G, P106A
VL: B1 VL

- fold change of affinity: 0.6 fold
B29: H183/L072 VH A100fP (antibody, name in Kabat numbering, V domains shown)
VH: B1 VH with P106A, A112P
VL: B1 VL

- fold change of affinity: 0 fold
B30: H183/L072 VH D101P (antibody, name in Kabat numbering, V domains shown)
VH: B1 VH with P106A, D116P
VL: B1 VL

- fold change of affinity: 0.3 fold
B31: H183/L072 VH F27K (antibody, name in Kabat numbering, V domains shown)
VH: B1 VH with F27K, P106A
VL: B1 VL

- fold change of affinity: 0.4 fold
B32: H183/L072 VH F27L (antibody, name in Kabat numbering, V domains shown)
VH: B1 VH with F27L, P106A
VL: B1 VL

- fold change of affinity: 0 fold
B33: H183/L072 VH D52aR (antibody, name in Kabat numbering, V domains shown)
VH: B1 VH with D53R, P106A
VL: B1 VL

- fold change of affinity: 0.8 fold
B34: H183/L072 VH D101A (antibody, name in Kabat numbering, V domains shown)
VH: B1 VH with P106A, D116A
VL: B1 VL

- fold change of affinity: 0.4 fold
B35: H183/L072 VH F27N (antibody, name in Kabat numbering, V domains shown)
VH: B1 VH with F27N, P106A
VL: B1 VL

- fold change of affinity: 1.2 fold
B36: H183/L072 VH A100fL (antibody, name in Kabat numbering, V domains shown)
VH: B1 VH with P106A, A112L
VL: B1 VL

- fold change of affinity: 0 fold
B37: H183/L072 VH D52aE (antibody, name in Kabat numbering, V domains shown)
VH: B1 VH with D53E, P106A
VL: B1 VL

- fold change of affinity: 0.9 fold
B38: H183/L072 VH A102I (antibody, name in Kabat numbering, V domains shown)
VH: B1 VH with P106A, A117I
VL: B1 VL

- fold change of affinity: 2.3 fold
B39: H183/L072 VH D101L (antibody, name in Kabat numbering, V domains shown)
VH: B1 VH with P106A, D116L
VL: B1 VL

- fold change of affinity: 0.1 fold
B40: H183/L072 VH D52aN (antibody, name in Kabat numbering, V domains shown)
VH: B1 VH with D53N, P106A
VL: B1 VL

- fold change of affinity: 0 fold
B41: H183/L072 VH D52aS (antibody, name in Kabat numbering, V domains shown)
VH: B1 VH with D53S, P106A
VL: B1 VL

- fold change of affinity: 0 fold
B42: H183/L072 VH F27P (antibody, name in Kabat numbering, V domains shown)
VH: B1 VH with F27P, P106A
VL: B1 VL

- fold change of affinity: 0.5 fold
B43: H183/L072 VH F27M (antibody, name in Kabat numbering, V domains shown)
VH: B1 VH with F27M, P106A
VL: B1 VL

- fold change of affinity: 0 fold
B44: H183/L072 VH D52aK (antibody, name in Kabat numbering, V domains shown)
VH: B1 VH with D53K, P106A
VL: B1 VL

- fold change of affinity: 0.1 fold
B45: H183/L072 VH F27H (antibody, name in Kabat numbering, V domains shown)
VH: B1 VH with F27H, P106A
VL: B1 VL
